Results as given in publication PMC5739758, “Human oncoprotein Musashi-2 N-terminal RNA recognition motif backbone assignment and identification of RNA-binding pocket”.

What was measured:
MSI2-RRM1 [1] = biological target: T1, MSI2-RRM1 (human, UniProt Q96DH6 21-111); test: NMR; 1H-15N HSQC titration, 1:1, slow exchange; TR-FRET at room temperature (FP per earlier publication; binding buffers not given; protein stored in 50 mM Tris-HCl pH 8.0, 500 mM NaCl); NMR 20 mM MES pH 6.0, 150 mM NaCl, 5% D2O, 298 K; details: protein: recombinant; tags: N-terminal His6 + TEV site (residues -3 to 20)
T1 sequence (Q96DH6 21-111): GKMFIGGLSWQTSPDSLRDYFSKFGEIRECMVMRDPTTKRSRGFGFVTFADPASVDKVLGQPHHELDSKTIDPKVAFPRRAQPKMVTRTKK

MSI2-RRM1 [2] = biological target: T1, MSI2-RRM1; test: TR-FRET; 2 nM RNA; no detectable binding in nM range; TR-FRET at room temperature (FP per earlier publication; binding buffers not given; protein stored in 50 mM Tris-HCl pH 8.0, 500 mM NaCl); NMR 20 mM MES pH 6.0, 150 mM NaCl, 5% D2O, 298 K; details: protein: recombinant; tags: N-terminal His6 + TEV site (residues -3 to 20); label: 3' biotin
MSI2-RRM1 [3] = biological target: T1, MSI2-RRM1; test: TR-FRET; 2 nM RNA; TR-FRET at room temperature (FP per earlier publication; binding buffers not given; protein stored in 50 mM Tris-HCl pH 8.0, 500 mM NaCl); NMR 20 mM MES pH 6.0, 150 mM NaCl, 5% D2O, 298 K; details: protein: recombinant; tags: N-terminal His6 + TEV site (residues -3 to 20); label: 3' biotin

## GUAGU (ssRNA) [Numb5]
MSI2-RRM1 [1]
  binding result: binds

## UAGCAUCAUCAUUUA (ssRNA) [Numb-mutBiotin]
MSI2-RRM1 [2]
  binding result: no binding

## UAGGUAGUAGUUUUA (ssRNA) [NumbBiotin]
MSI2-RRM1 [3]
  Kd: 2.07 nM
